{
  "source": "paper PMC6730670",
  "target": "Yn-ABHD5 (UniProt Q9DBL9)",
  "sequence (Q9DBL9 whole entry)": "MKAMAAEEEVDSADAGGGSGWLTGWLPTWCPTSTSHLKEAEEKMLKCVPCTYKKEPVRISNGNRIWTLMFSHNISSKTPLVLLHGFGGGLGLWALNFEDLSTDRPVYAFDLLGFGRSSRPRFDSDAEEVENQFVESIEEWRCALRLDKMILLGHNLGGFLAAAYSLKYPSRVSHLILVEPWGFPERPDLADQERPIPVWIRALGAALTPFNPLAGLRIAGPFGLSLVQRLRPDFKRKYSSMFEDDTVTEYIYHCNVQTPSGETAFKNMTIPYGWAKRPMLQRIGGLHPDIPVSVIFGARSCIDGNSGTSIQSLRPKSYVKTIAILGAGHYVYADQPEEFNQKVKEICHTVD",
  "assay": "split reporter",
  "data": [
    {"substance": "PNPLA3-Yc (from UniProt Q91WW7 1-413) (natural protein)", "values": [
      {"measurement": "percent of transfected cells with BiFC", "result": "> 90", "unit": "%"}
    ]}
  ]
}
